The assay concerns the target freshly polymerised microtubules (Microtubule Binding Protein Spin-Down Assay kit, Cytoskeleton, Inc.). Briefly: co-sedimentation; microtubule spin-down: 2.5 μg protein, 30 min at room temperature with freshly polymerised microtubules (equivalent of 2 μM tubulin dimer), 20 μM Taxol, 10 mM MgCl2 and 4 mM GDP or GTP; 100,000 g for 40 min through a 60% glycerol cushion; supernatant and pellet on Coomassie gel.

Chain of freshly polymerised microtubules (Microtubule Binding Protein Spin-Down Assay kit, Cytoskeleton, Inc.) (P68363 whole entry, chain 1 of 2): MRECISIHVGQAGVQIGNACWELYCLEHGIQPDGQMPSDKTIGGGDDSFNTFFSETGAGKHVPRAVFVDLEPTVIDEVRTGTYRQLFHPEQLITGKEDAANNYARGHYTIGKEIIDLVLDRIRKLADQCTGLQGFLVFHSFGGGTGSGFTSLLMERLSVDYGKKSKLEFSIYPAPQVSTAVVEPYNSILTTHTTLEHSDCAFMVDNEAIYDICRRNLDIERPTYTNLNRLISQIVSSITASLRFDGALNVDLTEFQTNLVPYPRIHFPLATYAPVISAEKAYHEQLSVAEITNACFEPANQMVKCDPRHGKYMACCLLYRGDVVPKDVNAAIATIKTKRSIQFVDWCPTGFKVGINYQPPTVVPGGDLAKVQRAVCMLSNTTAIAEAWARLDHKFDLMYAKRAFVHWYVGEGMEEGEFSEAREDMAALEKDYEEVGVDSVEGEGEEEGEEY
Chain of freshly polymerised microtubules (Microtubule Binding Protein Spin-Down Assay kit, Cytoskeleton, Inc.) (A8K068 whole entry, chain 2 of 2, further chain): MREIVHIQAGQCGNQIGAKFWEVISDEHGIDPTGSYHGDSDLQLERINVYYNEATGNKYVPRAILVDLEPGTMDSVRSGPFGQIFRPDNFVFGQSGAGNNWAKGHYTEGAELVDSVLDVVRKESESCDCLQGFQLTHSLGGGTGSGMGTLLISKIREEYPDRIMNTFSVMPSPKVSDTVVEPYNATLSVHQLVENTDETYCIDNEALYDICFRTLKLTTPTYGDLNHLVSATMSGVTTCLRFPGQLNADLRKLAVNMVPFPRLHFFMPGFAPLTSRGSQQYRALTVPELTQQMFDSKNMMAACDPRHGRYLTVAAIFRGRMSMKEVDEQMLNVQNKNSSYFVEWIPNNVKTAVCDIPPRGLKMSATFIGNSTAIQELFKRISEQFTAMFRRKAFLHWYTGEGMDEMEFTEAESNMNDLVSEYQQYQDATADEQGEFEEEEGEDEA

Turning to “N-terminal His-tagged recombinant T. brucei ARL6 (natural protein)”, the percent of the protein in the insoluble fraction with microtubules, with GDP worked out at 36% and the percent of the protein in the insoluble fraction with microtubules, with GTP was 20%.

The values are drawn from article PMC3793860, “A role for the vesicle-associated tubulin binding protein ARL6 (BBS3) in flagellum extension in Trypanosoma brucei” (Biochimica et Biophysica Acta, 2012).
